Article PMC4404499 (The Biochemical journal, 2014)

Experiments:
Assay in all cases: pull-down
GST-tagged TRIM3 L55A = molecular target: T1, GST-tagged TRIM3 L55A (mouse, UniProt Q9R1R2 1-744, L55A)
T1 sequence (looked up): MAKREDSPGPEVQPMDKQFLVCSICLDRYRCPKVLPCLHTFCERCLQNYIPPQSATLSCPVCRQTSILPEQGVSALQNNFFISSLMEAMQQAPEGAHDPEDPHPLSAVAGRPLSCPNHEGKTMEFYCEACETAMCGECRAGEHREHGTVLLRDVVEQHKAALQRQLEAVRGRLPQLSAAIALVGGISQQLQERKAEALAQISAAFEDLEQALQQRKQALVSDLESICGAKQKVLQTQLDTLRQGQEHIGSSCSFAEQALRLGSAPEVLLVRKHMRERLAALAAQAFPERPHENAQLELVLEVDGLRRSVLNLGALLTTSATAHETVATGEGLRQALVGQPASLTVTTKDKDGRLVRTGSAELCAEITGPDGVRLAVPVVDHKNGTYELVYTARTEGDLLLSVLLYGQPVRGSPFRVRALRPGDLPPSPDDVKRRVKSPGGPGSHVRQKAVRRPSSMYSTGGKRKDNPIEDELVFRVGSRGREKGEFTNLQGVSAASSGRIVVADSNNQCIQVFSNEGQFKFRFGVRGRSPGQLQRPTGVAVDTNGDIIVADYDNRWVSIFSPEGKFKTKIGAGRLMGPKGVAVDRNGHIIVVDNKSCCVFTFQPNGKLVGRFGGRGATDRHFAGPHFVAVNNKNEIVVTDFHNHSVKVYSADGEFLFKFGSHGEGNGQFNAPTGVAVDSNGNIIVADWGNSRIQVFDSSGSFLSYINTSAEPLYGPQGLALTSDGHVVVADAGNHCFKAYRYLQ

GST-tagged TRIM3 Y49A = molecular target: T2, GST-tagged TRIM3 Y49A (mouse, UniProt Q9R1R2 1-744, Y49A)
T2 sequence (looked up): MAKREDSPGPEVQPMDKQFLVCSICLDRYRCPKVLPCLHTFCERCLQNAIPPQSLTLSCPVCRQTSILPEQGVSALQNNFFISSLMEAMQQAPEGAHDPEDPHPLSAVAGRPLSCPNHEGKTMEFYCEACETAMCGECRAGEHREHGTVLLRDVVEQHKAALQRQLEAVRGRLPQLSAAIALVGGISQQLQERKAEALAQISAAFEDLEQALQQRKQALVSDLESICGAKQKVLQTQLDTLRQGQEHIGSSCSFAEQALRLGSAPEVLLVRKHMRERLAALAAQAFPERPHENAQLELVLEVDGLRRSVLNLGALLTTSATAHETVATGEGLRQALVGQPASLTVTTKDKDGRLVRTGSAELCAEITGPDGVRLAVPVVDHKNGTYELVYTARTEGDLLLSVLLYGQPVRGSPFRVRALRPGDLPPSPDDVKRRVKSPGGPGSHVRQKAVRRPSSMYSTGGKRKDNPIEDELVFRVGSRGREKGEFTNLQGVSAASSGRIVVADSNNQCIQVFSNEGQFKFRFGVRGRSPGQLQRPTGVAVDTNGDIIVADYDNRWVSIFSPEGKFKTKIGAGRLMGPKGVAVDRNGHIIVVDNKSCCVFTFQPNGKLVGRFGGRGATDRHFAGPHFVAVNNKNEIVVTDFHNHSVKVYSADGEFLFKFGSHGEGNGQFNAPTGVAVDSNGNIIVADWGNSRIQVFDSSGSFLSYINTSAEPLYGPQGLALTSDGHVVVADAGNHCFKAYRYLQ

GST-tagged TRIM3 I50A = molecular target: T3, GST-tagged TRIM3 I50A (mouse, UniProt Q9R1R2 1-744, I50A)
T3 sequence (looked up): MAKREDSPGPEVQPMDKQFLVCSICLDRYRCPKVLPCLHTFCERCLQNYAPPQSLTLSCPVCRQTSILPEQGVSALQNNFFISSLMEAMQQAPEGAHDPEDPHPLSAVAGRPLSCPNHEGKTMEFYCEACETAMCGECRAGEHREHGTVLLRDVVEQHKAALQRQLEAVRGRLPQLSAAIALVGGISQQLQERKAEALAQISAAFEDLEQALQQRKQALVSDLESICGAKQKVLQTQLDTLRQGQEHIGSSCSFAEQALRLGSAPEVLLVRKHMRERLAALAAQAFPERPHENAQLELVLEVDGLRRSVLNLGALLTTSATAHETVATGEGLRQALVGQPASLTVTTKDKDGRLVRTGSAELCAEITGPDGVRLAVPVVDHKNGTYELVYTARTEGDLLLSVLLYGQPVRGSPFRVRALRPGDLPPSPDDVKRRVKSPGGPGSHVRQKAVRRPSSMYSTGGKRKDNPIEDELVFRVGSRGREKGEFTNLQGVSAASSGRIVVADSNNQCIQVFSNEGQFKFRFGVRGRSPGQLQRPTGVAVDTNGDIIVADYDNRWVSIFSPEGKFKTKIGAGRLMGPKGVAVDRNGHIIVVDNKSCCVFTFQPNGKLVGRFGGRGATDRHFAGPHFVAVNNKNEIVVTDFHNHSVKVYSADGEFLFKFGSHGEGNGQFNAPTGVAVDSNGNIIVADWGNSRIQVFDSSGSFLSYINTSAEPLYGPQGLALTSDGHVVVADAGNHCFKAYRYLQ

GST-tagged TRIM3 N48A = molecular target: T4, GST-tagged TRIM3 N48A (mouse, UniProt Q9R1R2 1-744, N48A)
T4 sequence (looked up): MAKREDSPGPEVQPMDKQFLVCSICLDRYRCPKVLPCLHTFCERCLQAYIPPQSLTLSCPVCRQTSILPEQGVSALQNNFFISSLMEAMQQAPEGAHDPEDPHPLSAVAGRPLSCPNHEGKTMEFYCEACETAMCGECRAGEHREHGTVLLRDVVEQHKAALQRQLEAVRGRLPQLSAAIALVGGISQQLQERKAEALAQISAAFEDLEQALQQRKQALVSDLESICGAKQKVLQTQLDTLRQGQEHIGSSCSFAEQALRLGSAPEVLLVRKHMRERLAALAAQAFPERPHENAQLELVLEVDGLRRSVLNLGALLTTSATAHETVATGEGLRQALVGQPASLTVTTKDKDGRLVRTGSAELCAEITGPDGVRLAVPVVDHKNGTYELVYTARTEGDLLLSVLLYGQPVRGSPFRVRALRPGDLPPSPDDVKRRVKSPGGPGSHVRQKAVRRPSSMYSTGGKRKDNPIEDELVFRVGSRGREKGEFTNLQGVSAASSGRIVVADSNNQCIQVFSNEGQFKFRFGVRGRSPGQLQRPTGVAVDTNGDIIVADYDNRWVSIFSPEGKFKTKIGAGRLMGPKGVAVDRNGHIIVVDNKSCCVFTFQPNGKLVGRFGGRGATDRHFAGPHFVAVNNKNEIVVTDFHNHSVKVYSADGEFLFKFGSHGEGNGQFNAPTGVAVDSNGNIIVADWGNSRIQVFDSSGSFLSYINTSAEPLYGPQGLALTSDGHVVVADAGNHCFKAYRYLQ

Measured: binding result

B1: His-tagged p21 (wild-type) (natural protein, UniProt P39689 1-159, looked up)
chain: MSNPGDVRPVPHRSKVCRCLFGPVDSEQLRRDCDALMAGCLQEARERWNFDFVTETPLEGNFVWERVRSLGLPKVYLSPGSRSRDDLGGDKRPSTSSALLQGPAPEDHVALSLSCTLVSERPEDSPGGPGTSQGRKRRQTSLTDFYHSKRRLVFCKRKP
binds: all assays above
